One molecule from patent US9872921B2, “DE-N-acetyl sialic acid antigens, antibodies thereto, and methods of use in cancer therapy” (priority 2004, dated 2018) can be followed below.

This assay concerns normal melanocytes. Kind of assay: Immunostaining of frozen sections of normal human skin. The following applies: frozen unfixed sections, 400× magnification. On the procedure: To determine whether there is a difference in expression of SEAM 3-reactive antigen between normal melanocytes and melanoma tumor cells, immuno-staining of thin sections of each type of tissue were performed. In addition to SEAM 3, controls included the secondary antibody alone and R24, which binds to the ganglioside GD3 that is expressed in normal melanocytes and is overexpressed in some melanomas (Dippold et al. Proc Natl Acad Sci USA, 1980. 77(10): 6114-8.; Graus, et al., Brain Res, 1984. 324(1): 190-4; Houghton et al. Proc Natl Acad Sci USA, 1985. 82(4):1242-6; Panneerselvam et al. J Immunol, 1986. 136(7): 2534-41; Real et al. Cancer Res, 1985. 45(9): 4401-11; Vadhan-Raj et al. J Clin Oncol, 1988. 6(10): 1636-48; Welt t al. Clin Immunol Immunopathol, 1987. 45(2): 214-29).
The tissue sections were made from frozen samples of normal skin (HuSkinTb111 in FIG. 39) and two human melanomas (HuMel1151 and HuMel4034). To prevent the possibility of blocking de-N-acetyl antigen or extracting a lipid containing the antigen, the sections were prepared from frozen tissue and were dried onto the slides but not fixed with aldehydes or organic solvents (Chammas et al. Cancer Res, 1999. 59(6): 1337-46). […] Bound antibody was then detected using the DAKO LSAB kit following the manufacturer's directions (Thermo Fisher Scientific, Waltham, Mass.). […]

B1: SEAM 3: murine anti-N-Pr NmB polysaccharide monoclonal antibody (IgG2b), ATCC Deposit No. HB-12170 (antibody, V domains shown)
VH: EVKLQESGGGLVQPGDSLSLSCAASGFTFTPYYMGWVRQPPGKALEWLGYIRNKANGYTTEYSASVKGRFTISRDNSQSILYLQMNALRAEDSATYYCARYARGTVDSWGQGTTLTVS
VL: DIVMTQSPLTLSVTIGQPASISCKSSQSLLHSNGKTYLNWLLQRPGQSPKLLIYLVSKLESGVPDRFSGSGSGTDFTLKISRVEAEDLGLYYCLQIIHFPHTFGAGTKLELKRA
modifications: mouse
As for B1, the “immunostaining of normal human skin” value is reported as “binds to an antigen in neural like structures of the dermis but is not present in melanocytes”.
